Experiment: Halomethane reactions (formaldehyde, PFBHA, GC-ECD): iodomethane
Type: biochemical
Conditions: formaldehyde formation
Description: Halomethane reactions: Reactions with chloromethane, bromomethane, and iodomethane were carried out in 1 mL-scale using halomethane-saturated buffer (100 mM phosphate pH 8.0) and 50-500 nM purified protein. 900 μL buffer were added with protein, incubated for 15 seconds, and then added with 100 μL NADPH regeneration solution (100 units/mL IDH, 70 mg/mL isocitrate, 1.5 mg/ml NADP+). Solution were sealed and stirred for 30 minutes at 25° C. To reduce background levels of formaldehyde to a minimum, buffers were prepared using HPLC-grade water and autoclaved twice prior to use. Formaldehyde concentration in the reaction solutions was determined through derivatization with o-(2,3,4,5,6-pentafluorobenzyl)hydroxylamine hydrochloride (PFBHA) and gas chromatography. […] Organic phase was removed, diluted 1/100 v/v, and analyzed on a Shimadzu GC-17A gas chromatograph. […] Quantification was carried out using a calibration curve and solutions at known concentration of formaldehyde. […]
Along with activity on propane, P450PMO also hydroxylates ethane (TTN˜2,500), despite ethane's higher C—H bond energy (101.0 kcal mol^−1 versus 98.6 kcal mol^−1 for propane). […] Reactions with purified P450 variants and the halomethanes were analyzed for formaldehyde formation (FIG. 42). […] Activity on chloromethane was detected at lower levels (0.5-1% of propane activity) and in fewer P450 variants. […]

B1: P450PMO: P450 BM-3 variant, SEQ ID NO:125; 7-7 plus G443A and D698G; propane monooxygenase (protein)
chain: TIKEMPQPKTFGELKNLPLLNTDKPVQALMKIADELGEIFKFEAPGCVTRYISSQRLIKEACDESRFDKNLSQELKFFRDFGGDGLFTSWTHEINWKKAHNILLPSFSQQAMKGYHAMMVDIAVQLVQKWERLNADEHIEVSEDMTRLTLDTIGLCGFNYRFNSFYRDQPHPFIISMVRALDEVMNKPQRANPDDPAYDENKRQCQEDIKVMNDLVDKIIADRKARGEQSDDLLTQMLNGKDPETGEPLDDGNISYQIITFLIAGHETTSGLLSFALYFLVKNPHVLQKVVEEAARVLVDPVPSYKQVKQLKYVGMVLNEALRLWPTFPAFSLYAKEDTVLGGEYPLEKGDEVMVLIPQLHRDKTVWGDDVEEFRPERFENPSAIPQHAFKPFGNGQRACIGQQFALHEATLVLGMMLKHFDFEDHTNYELDIKETLTLKPEAFVVKAKSKKIPLGGIPSPSTGQSAKKVRKKAENAHNTPLLVLYGSNMGTAEGTARDLADIAMSKGFAPQVATLDSHAGNLPREGAVLIVTASYNGHPPDNAKQFVDWLDQASADEVKGVRYSVFGCGDKNWATTYQKVPAFIDETLAAKGAENIADRGEADASDDFEGTYEEWREHMWSDVAAYFNLDIENSEDNKSTLSLQFVDSAADMPLAKMHGAFSTNVVASKELQQPGSARSTRHLEIELPKEASYQEGGHLGVIPRNYEGTVNRVTARFGLDASQQIRLEAEEEKLAHLPLAKTVSVEELLQYVELQDPVTRTQLRAMAAKTVCPPHKVELEALLEKQAYKEQVLAKRLTMLELLEKYPACEMKFSEFIALLPSIRPRYYSISSSPRVDEKQASITVSVVSGEAWSGYGEYKGIASNYLAELQEGDTITCFISTPQSEFTLPKDPETPLIMVGPGTGVAPFRGFVQARKQLKEQGQSLGEAHLYFGCRSPHEDYLYQEELENAQSEGIITLHTAFSRMPNQPKTYVQHVMEQDGKKLIELLDQGAHFYICGDGSQMAPAVEATLMKSYADVHQVSEADARLWLQQLEEKGRYAKDVWAG
modifications: Mutant P450PMO protein sequence
notes: 7-7 plus G443A and D698G; propane monooxygenase
  iodomethane dehalogenase activity: could be detected
